Results on eight molecules are retold here after patent publication US20240279278A1, “NMU RECEPTOR 2 AGONISTS” (Boehringer Ingelheim International GmbH, priority 2023, published 2024).

The chains are these.
B1: C18DA-gGlu3-Sar9-AEPipAc-Tyr-Phe-NMeLeu-Nle-Dbu-Pro-Arg-Gly-NH2 (peptide)
peptide: EEEXXXXXXXXXXYFLXXPRG
HELM: PEPTIDE1{[O=C(O)CCCCCCCCCCCCCCCCC(=O)[*:2]].[gGlu].[gGlu].[gGlu].[Sar].[Sar].[Sar].[Sar].[Sar].[Sar].[Sar].[Sar].[Sar].[O=C(CN1CCN(CCN[*:1])CC1)[*:2]].Y.F.[meL].[Nle].[Dab].P.R.G.[am]}$$$$V2.0
SMILES: CCCC[C@H](NC(=O)[C@H](CC(C)C)N(C)C(=O)[C@H](Cc1ccccc1)NC(=O)[C@H](Cc1ccc(O)cc1)NC(=O)CN1CCN(CCNC(=O)CN(C)C(=O)CN(C)C(=O)CN(C)C(=O)CN(C)C(=O)CN(C)C(=O)CN(C)C(=O)CN(C)C(=O)CN(C)C(=O)CN(C)C(=O)CC[C@H](NC(=O)CC[C@H](NC(=O)CC[C@H](NC(=O)CCCCCCCCCCCCCCCCC(=O)O)C(=O)O)C(=O)O)C(=O)O)CC1)C(=O)N[C@@H](CCN)C(=O)N1CCC[C@H]1C(=O)N[C@@H](CCCNC(=N)N)C(=O)NCC(N)=O
B2: C18DA-gGlu3-Sar15-AEPipAc-Tyr-Phe-NMeLeu-Nle-Orn-NMeAla-Arg-Gly-NH2 (peptide)
peptide: EEEXXXXXXXXXXXXXXXXYFLXXARG
HELM: PEPTIDE1{[O=C(O)CCCCCCCCCCCCCCCCC(=O)[*:2]].[gGlu].[gGlu].[gGlu].[Sar].[Sar].[Sar].[Sar].[Sar].[Sar].[Sar].[Sar].[Sar].[Sar].[Sar].[Sar].[Sar].[Sar].[Sar].[O=C(CN1CCN(CCN[*:1])CC1)[*:2]].Y.F.[meL].[Nle].[Orn].[meA].R.G.[am]}$$$$V2.0
SMILES: CCCC[C@H](NC(=O)[C@H](CC(C)C)N(C)C(=O)[C@H](Cc1ccccc1)NC(=O)[C@H](Cc1ccc(O)cc1)NC(=O)CN1CCN(CCNC(=O)CN(C)C(=O)CN(C)C(=O)CN(C)C(=O)CN(C)C(=O)CN(C)C(=O)CN(C)C(=O)CN(C)C(=O)CN(C)C(=O)CN(C)C(=O)CN(C)C(=O)CN(C)C(=O)CN(C)C(=O)CN(C)C(=O)CN(C)C(=O)CN(C)C(=O)CC[C@H](NC(=O)CC[C@H](NC(=O)CC[C@H](NC(=O)CCCCCCCCCCCCCCCCC(=O)O)C(=O)O)C(=O)O)C(=O)O)CC1)C(=O)N[C@@H](CCCN)C(=O)N(C)[C@@H](C)C(=O)N[C@@H](CCCNC(=N)N)C(=O)NCC(N)=O
B3: C18DA-gGlu3-Sar12-AEPipAc-Tyr-Phe-NMeLeu-Nle-Arg-NMeAla-Arg-Gly-NH2 (peptide)
peptide: EEEXXXXXXXXXXXXXYFLXRARG
HELM: PEPTIDE1{[O=C(O)CCCCCCCCCCCCCCCCC(=O)[*:2]].[gGlu].[gGlu].[gGlu].[Sar].[Sar].[Sar].[Sar].[Sar].[Sar].[Sar].[Sar].[Sar].[Sar].[Sar].[Sar].[O=C(CN1CCN(CCN[*:1])CC1)[*:2]].Y.F.[meL].[Nle].R.[meA].R.G.[am]}$$$$V2.0
SMILES: CCCC[C@H](NC(=O)[C@H](CC(C)C)N(C)C(=O)[C@H](Cc1ccccc1)NC(=O)[C@H](Cc1ccc(O)cc1)NC(=O)CN1CCN(CCNC(=O)CN(C)C(=O)CN(C)C(=O)CN(C)C(=O)CN(C)C(=O)CN(C)C(=O)CN(C)C(=O)CN(C)C(=O)CN(C)C(=O)CN(C)C(=O)CN(C)C(=O)CN(C)C(=O)CN(C)C(=O)CC[C@H](NC(=O)CC[C@H](NC(=O)CC[C@H](NC(=O)CCCCCCCCCCCCCCCCC(=O)O)C(=O)O)C(=O)O)C(=O)O)CC1)C(=O)N[C@@H](CCCNC(=N)N)C(=O)N(C)[C@@H](C)C(=O)N[C@@H](CCCNC(=N)N)C(=O)NCC(N)=O
B4: C18DA-gGlu3-Sar12-AEPipAc-Tyr-Phe-NMeLeu-Nle-Arg-Pro-Arg-Gly-NH2 (peptide)
peptide: EEEXXXXXXXXXXXXXYFLXRPRG
HELM: PEPTIDE1{[O=C(O)CCCCCCCCCCCCCCCCC(=O)[*:2]].[gGlu].[gGlu].[gGlu].[Sar].[Sar].[Sar].[Sar].[Sar].[Sar].[Sar].[Sar].[Sar].[Sar].[Sar].[Sar].[O=C(CN1CCN(CCN[*:1])CC1)[*:2]].Y.F.[meL].[Nle].R.P.R.G.[am]}$$$$V2.0
SMILES: CCCC[C@H](NC(=O)[C@H](CC(C)C)N(C)C(=O)[C@H](Cc1ccccc1)NC(=O)[C@H](Cc1ccc(O)cc1)NC(=O)CN1CCN(CCNC(=O)CN(C)C(=O)CN(C)C(=O)CN(C)C(=O)CN(C)C(=O)CN(C)C(=O)CN(C)C(=O)CN(C)C(=O)CN(C)C(=O)CN(C)C(=O)CN(C)C(=O)CN(C)C(=O)CN(C)C(=O)CC[C@H](NC(=O)CC[C@H](NC(=O)CC[C@H](NC(=O)CCCCCCCCCCCCCCCCC(=O)O)C(=O)O)C(=O)O)C(=O)O)CC1)C(=O)N[C@@H](CCCNC(=N)N)C(=O)N1CCC[C@H]1C(=O)N[C@@H](CCCNC(=N)N)C(=O)NCC(N)=O
B5: C18DA-gGlu3-Sar12-AEPipAc-Tyr-Phe-NMeLeu-Nle-Orn-NMeAla-Arg-Gly-NH2 (peptide)
peptide: EEEXXXXXXXXXXXXXYFLXXARG
HELM: PEPTIDE1{[O=C(O)CCCCCCCCCCCCCCCCC(=O)[*:2]].[gGlu].[gGlu].[gGlu].[Sar].[Sar].[Sar].[Sar].[Sar].[Sar].[Sar].[Sar].[Sar].[Sar].[Sar].[Sar].[O=C(CN1CCN(CCN[*:1])CC1)[*:2]].Y.F.[meL].[Nle].[Orn].[meA].R.G.[am]}$$$$V2.0
SMILES: CCCC[C@H](NC(=O)[C@H](CC(C)C)N(C)C(=O)[C@H](Cc1ccccc1)NC(=O)[C@H](Cc1ccc(O)cc1)NC(=O)CN1CCN(CCNC(=O)CN(C)C(=O)CN(C)C(=O)CN(C)C(=O)CN(C)C(=O)CN(C)C(=O)CN(C)C(=O)CN(C)C(=O)CN(C)C(=O)CN(C)C(=O)CN(C)C(=O)CN(C)C(=O)CN(C)C(=O)CC[C@H](NC(=O)CC[C@H](NC(=O)CC[C@H](NC(=O)CCCCCCCCCCCCCCCCC(=O)O)C(=O)O)C(=O)O)C(=O)O)CC1)C(=O)N[C@@H](CCCN)C(=O)N(C)[C@@H](C)C(=O)N[C@@H](CCCNC(=N)N)C(=O)NCC(N)=O
B6: C18DA-gGlu3-Sar15-AEPipAc-Tyr-Phe-NMeLeu-Nle-Dbu-NMeAla-Arg-Gly-NH2 (peptide)
peptide: EEEXXXXXXXXXXXXXXXXYFLXXARG
HELM: PEPTIDE1{[O=C(O)CCCCCCCCCCCCCCCCC(=O)[*:2]].[gGlu].[gGlu].[gGlu].[Sar].[Sar].[Sar].[Sar].[Sar].[Sar].[Sar].[Sar].[Sar].[Sar].[Sar].[Sar].[Sar].[Sar].[Sar].[O=C(CN1CCN(CCN[*:1])CC1)[*:2]].Y.F.[meL].[Nle].[Dab].[meA].R.G.[am]}$$$$V2.0
SMILES: CCCC[C@H](NC(=O)[C@H](CC(C)C)N(C)C(=O)[C@H](Cc1ccccc1)NC(=O)[C@H](Cc1ccc(O)cc1)NC(=O)CN1CCN(CCNC(=O)CN(C)C(=O)CN(C)C(=O)CN(C)C(=O)CN(C)C(=O)CN(C)C(=O)CN(C)C(=O)CN(C)C(=O)CN(C)C(=O)CN(C)C(=O)CN(C)C(=O)CN(C)C(=O)CN(C)C(=O)CN(C)C(=O)CN(C)C(=O)CN(C)C(=O)CC[C@H](NC(=O)CC[C@H](NC(=O)CC[C@H](NC(=O)CCCCCCCCCCCCCCCCC(=O)O)C(=O)O)C(=O)O)C(=O)O)CC1)C(=O)N[C@@H](CCN)C(=O)N(C)[C@@H](C)C(=O)N[C@@H](CCCNC(=N)N)C(=O)NCC(N)=O
B7: C18DA-gGlu3-Sar15-AEPipAc-Tyr-Phe-NMeLeu-Nle-Arg-NMeAla-Arg-Gly-NH2 (peptide)
peptide: EEEXXXXXXXXXXXXXXXXYFLXRARG
HELM: PEPTIDE1{[O=C(O)CCCCCCCCCCCCCCCCC(=O)[*:2]].[gGlu].[gGlu].[gGlu].[Sar].[Sar].[Sar].[Sar].[Sar].[Sar].[Sar].[Sar].[Sar].[Sar].[Sar].[Sar].[Sar].[Sar].[Sar].[O=C(CN1CCN(CCN[*:1])CC1)[*:2]].Y.F.[meL].[Nle].R.[meA].R.G.[am]}$$$$V2.0
SMILES: CCCC[C@H](NC(=O)[C@H](CC(C)C)N(C)C(=O)[C@H](Cc1ccccc1)NC(=O)[C@H](Cc1ccc(O)cc1)NC(=O)CN1CCN(CCNC(=O)CN(C)C(=O)CN(C)C(=O)CN(C)C(=O)CN(C)C(=O)CN(C)C(=O)CN(C)C(=O)CN(C)C(=O)CN(C)C(=O)CN(C)C(=O)CN(C)C(=O)CN(C)C(=O)CN(C)C(=O)CN(C)C(=O)CN(C)C(=O)CN(C)C(=O)CC[C@H](NC(=O)CC[C@H](NC(=O)CC[C@H](NC(=O)CCCCCCCCCCCCCCCCC(=O)O)C(=O)O)C(=O)O)C(=O)O)CC1)C(=O)N[C@@H](CCCNC(=N)N)C(=O)N(C)[C@@H](C)C(=O)N[C@@H](CCCNC(=N)N)C(=O)NCC(N)=O
B8: C18DA-gGlu3-Sar15-AEPipAc-Tyr-Phe-NMeLeu-Nle-Orn-Pro-Arg-Gly-NH2 (peptide)
peptide: EEEXXXXXXXXXXXXXXXXYFLXXPRG
HELM: PEPTIDE1{[O=C(O)CCCCCCCCCCCCCCCCC(=O)[*:2]].[gGlu].[gGlu].[gGlu].[Sar].[Sar].[Sar].[Sar].[Sar].[Sar].[Sar].[Sar].[Sar].[Sar].[Sar].[Sar].[Sar].[Sar].[Sar].[O=C(CN1CCN(CCN[*:1])CC1)[*:2]].Y.F.[meL].[Nle].[Orn].P.R.G.[am]}$$$$V2.0
SMILES: CCCC[C@H](NC(=O)[C@H](CC(C)C)N(C)C(=O)[C@H](Cc1ccccc1)NC(=O)[C@H](Cc1ccc(O)cc1)NC(=O)CN1CCN(CCNC(=O)CN(C)C(=O)CN(C)C(=O)CN(C)C(=O)CN(C)C(=O)CN(C)C(=O)CN(C)C(=O)CN(C)C(=O)CN(C)C(=O)CN(C)C(=O)CN(C)C(=O)CN(C)C(=O)CN(C)C(=O)CN(C)C(=O)CN(C)C(=O)CN(C)C(=O)CC[C@H](NC(=O)CC[C@H](NC(=O)CC[C@H](NC(=O)CCCCCCCCCCCCCCCCC(=O)O)C(=O)O)C(=O)O)C(=O)O)CC1)C(=O)N[C@@H](CCCN)C(=O)N1CCC[C@H]1C(=O)N[C@@H](CCCNC(=N)N)C(=O)NCC(N)=O

The assay has as its target T1, human neuromedin U receptor 1 (human, UniProt Q9HB89 24-426).
T1 sequence (looked up): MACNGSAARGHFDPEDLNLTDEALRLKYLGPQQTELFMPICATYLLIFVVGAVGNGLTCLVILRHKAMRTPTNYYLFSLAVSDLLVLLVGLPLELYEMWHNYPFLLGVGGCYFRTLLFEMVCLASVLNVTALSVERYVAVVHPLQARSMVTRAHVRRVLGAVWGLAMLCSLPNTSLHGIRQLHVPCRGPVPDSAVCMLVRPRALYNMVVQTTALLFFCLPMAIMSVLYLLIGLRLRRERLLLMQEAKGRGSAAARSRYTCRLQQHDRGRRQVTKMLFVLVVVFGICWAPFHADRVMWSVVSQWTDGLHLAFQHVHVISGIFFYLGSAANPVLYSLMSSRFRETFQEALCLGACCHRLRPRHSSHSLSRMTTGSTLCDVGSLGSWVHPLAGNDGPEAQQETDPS
Put plainly: cell-based or functional assay.
Molecule B1 displayed an EC50 (hNMUR1) buffer of 1000 nM.

On to B2, for which the EC50 (hNMUR1) buffer was more than 1000 nM.

Consider B3, for which the EC50 (hNMUR1) buffer turned out to be 1000 nM.

The molecule B4 yielded an EC50 (hNMUR1) buffer of 200 nM.

B5 showed an EC50 (hNMUR1) buffer of more than 1000 nM.

In the case of B6, the EC50 (hNMUR1) buffer is more than 1000 nM.

For B7, the EC50 (hNMUR1) buffer came to 1100 nM.

The molecule B8 showed an EC50 (hNMUR1) buffer of more than 1000 nM.
